This data set concerns Saccharomyces cerevisiae. The data set is described as follows: protein stability index of tFT-peptide fusion (C-terminal peptide) (PSI (0-1 scale)); higher = more stable (slower turnover). The settings on record: temperature: 30 C. As for the experimental part:
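MPS profiling in S. cerevisiae of the yeast C-terminome library: the last 12 aa of each annotated ORF are fused to the C-terminus of a sfGFP-mCherry timer, after a GGGS linker. Cells are FACS-sorted into 8 mCherry/sfGFP bins and deep-sequenced. PSI runs from 0 (unstable) to 1 (stable); wild type and das1Δ backgrounds, two technical replicates each.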

The mark [1] stands for this setting: genetic background: das1 deletion.

± gives the standard deviation of the averaged measurements.

In turn, “DELSLRPATERI [YGR038C-E C-terminal 12 aa]” registered a protein stability index under setting [1] of 0.739 ± 0.23 and a protein stability index (genetic background: wild type) of 0.571.
For DFNDSSNLKKTR [CLN3 C-terminal 12 aa], in that order: 0.7398 ± 0.0057 and 0.693 ± 0.039.
Regarding DGEFVVSDLRLR [YOR283W C-terminal 12 aa], the protein stability index is, setting by setting: under setting [1], 0.708 ± 0.0071; (genetic background: wild type) 0.682 ± 0.015.
For DGGVKRIRVWGY [DAL2 C-terminal 12 aa], in that order: 0.706 ± 0.024 and 0.703 ± 0.054.
DGVENTPVESQQ [NMD3 C-terminal 12 aa]: the protein stability index under setting [1] amounted to 0.6821 ± 0.0024 and the protein stability index (genetic background: wild type) was determined as 0.707 ± 0.0061.
In turn, DIFSRFSIILKC [YPR136C C-terminal 12 aa] registered a protein stability index under setting [1] of 0.413 ± 0.017 and a protein stability index (genetic background: wild type) of 0.281 ± 0.012.
For DIRAHLAEYYSF [PAU7 C-terminal 12 aa], in that order: 0.728 ± 0.026 and 0.687 ± 0.011.
The matching figures for DKLGFLDRRRNE [COI1 C-terminal 12 aa]: 0.683 ± 0.036 and 0.668 ± 0.043.
As to DKRNLLEILDFS [RRT13 C-terminal 12 aa], the protein stability index worked out at 0.72 ± 0.021 under setting [1] and 0.695 ± 0.029 (genetic background: wild type).
For DKSCIDIRSIIH [YAP5 C-terminal 12 aa], in that order: 0.706 ± 0.011 and 0.726 ± 0.041.
For the sequence DLEDEIEMEDVV [TFG2 C-terminal 12 aa], the protein stability index by setting is: under setting [1], 0.699 ± 0.027; (genetic background: wild type) 0.711 ± 0.046.
On to DLLNKESEYLNI [FAR11 C-terminal 12 aa], for which the protein stability index by setting is: under setting [1], 0.705 ± 0.012; (genetic background: wild type) 0.755 ± 0.061.
For DLRCLKYKYKNA [YGR016W C-terminal 12 aa], in that order: 0.695 ± 0.011 and 0.348 ± 0.028.
Consider DLVAQQVVQDGH [MYO2 C-terminal 12 aa], for which the protein stability index runs as follows: under setting [1], 0.7005 ± 0.0019; (genetic background: wild type) 0.707 ± 0.019.
The matching figures for DMMMLFGAEGDE [TAF7 C-terminal 12 aa]: 0.72102 ± 0.00011 and 0.707 ± 0.027.
The matching figures for DNFINSVKLNFR [SEC10 C-terminal 12 aa]: 0.6945 ± 0.0052 and 0.734 ± 0.022.
Turning to “DPFDTNLSIKLS [YMR075C-A C-terminal 12 aa]”, the protein stability index was found to be 0.696 ± 0.026 under setting [1] and 0.6827 ± 0.0066 (genetic background: wild type).
The matching figures for DQTRDFGTSMEL [FOB1 C-terminal 12 aa]: 0.706 ± 0.0098 and 0.712 ± 0.0086.
The matching figures for DTVLRKFADYKI [MPS1 C-terminal 12 aa]: 0.7043 ± 0.0052 and 0.679 ± 0.032.
The matching figures for DVKLLPPPKKRN [NUC1 C-terminal 12 aa]: 0.67982 ± 0.00038 and 0.6883 ± 0.0014.
For the sequence EAASDEHFSRVV [YGL185C C-terminal 12 aa], the protein stability index under setting [1] was 0.709 ± 0.02 and the protein stability index (genetic background: wild type) was 0.733 ± 0.021.
For “ECPRFSNKHGRN [YDR169C-A C-terminal 12 aa]”, in that order: 0.701 ± 0.0084 and 0.681 ± 0.014.
As for EDDEDGSGVEYD [RTT106 C-terminal 12 aa], the protein stability index was found to be 0.694 ± 0.009 under setting [1] and 0.7 ± 0.062 (genetic background: wild type).
Turning to EDKDSESFSEVC [YCG1 C-terminal 12 aa], the protein stability index by setting is: under setting [1], 0.702 ± 0.016; (genetic background: wild type) 0.705 ± 0.011.
For EDNDYELIFMNV [PML1 C-terminal 12 aa], in that order: 0.7194 ± 0.0068 and 0.712 ± 0.019.
For the sequence EDVDEDTTPFNV [YTP1 C-terminal 12 aa], the protein stability index amounted to 0.7138 ± 0.0053 under setting [1] and 0.684 ± 0.013 (genetic background: wild type).
The matching figures for EDVEVPFITIHL [UBA1 C-terminal 12 aa]: 0.6884 ± 0.0057 and 0.683 ± 0.017.
For EDVKEEESKVGA [IOC4 C-terminal 12 aa], in that order: 0.691 ± 0.033 and 0.664 ± 0.0082.
For EDYAYWGNRQLY [PER1 C-terminal 12 aa], the protein stability index runs as follows: under setting [1], 0.7133 ± 0.0036; (genetic background: wild type) 0.743 ± 0.038.
In the case of EEDEEDEENEEQ [UBX2 C-terminal 12 aa], the protein stability index came out at 0.716 ± 0.016 under setting [1] and 0.693 ± 0.043 (genetic background: wild type).
The matching figures for EEGPFKADHYRY [SAH1 C-terminal 12 aa]: 0.701 ± 0.011 and 0.694 ± 0.033.
For “EEQINGKRKRKD [YJR107C-A C-terminal 12 aa]”, in that order: 0.672 ± 0.0096 and 0.674 ± 0.022.
As to EFIFRESRKHNV [ERP3 C-terminal 12 aa], the protein stability index by setting is: under setting [1], 0.728 ± 0.058; (genetic background: wild type) 0.71 ± 0.061.
The matching figures for EFSTLFDDYKDN [YRR1 C-terminal 12 aa]: 0.7429 ± 0.0055 and 0.767 ± 0.022.
For EGEISKGAENAT [YDR444W C-terminal 12 aa], in that order: 0.676 ± 0.015 and 0.689 ± 0.011.
For EHKLGNTKYFED [ARP5 C-terminal 12 aa], in that order: 0.693 ± 0.01 and 0.687 ± 0.023.
Turning to EILGTDEPTVRT [PGM1 C-terminal 12 aa], the protein stability index runs as follows: under setting [1], 0.693 ± 0.015; (genetic background: wild type) 0.7 ± 0.014.
Sequence EISNRDENSIPE [MUB1 C-terminal 12 aa] came in with a protein stability index under setting [1] of 0.7214 ± 0.004 and a protein stability index (genetic background: wild type) of 0.677 ± 0.026.
For EKAERRKLSQGR [QRI5 C-terminal 12 aa], the protein stability index turned out to be 0.686 ± 0.02 under setting [1] and 0.6807 ± 0.002 (genetic background: wild type).
The matching figures for EKANDIGFHKYR [RPS29B C-terminal 12 aa]: 0.6797 ± 0.0058 and 0.648 ± 0.027.
For EKIKKILSELKK [NKP1 C-terminal 12 aa], in that order: 0.705 ± 0.022 and 0.715 ± 0.021.
As for EKKSKKEKKEKK [NOP58 C-terminal 12 aa], the protein stability index runs as follows: under setting [1], 0.747 ± 0.07; (genetic background: wild type) 0.717 ± 0.04.
For EKLILAKKDQPN [IST3 C-terminal 12 aa], in that order: 0.6926 ± 0.0055 and 0.709 ± 0.046.
For EKMLAAPHQNKV [SPR28 C-terminal 12 aa], the protein stability index reads like this: under setting [1], 0.696 ± 0.015; (genetic background: wild type) 0.6924 ± 0.001.
The matching figures for EKPKKKEVEKTA [NOG2 C-terminal 12 aa]: 0.684 ± 0.012 and 0.688 ± 0.018.
With EKWASQFGSSGS [SAP1 C-terminal 12 aa], the protein stability index under setting [1] is 0.702 ± 0.024 and the protein stability index (genetic background: wild type) amounted to 0.685 ± 0.014.
The matching figures for ELASYILKELNL [KIN2 C-terminal 12 aa]: 0.731 ± 0.028 and 0.702 ± 0.064.
The matching figures for ELKKIILESSMK [EXO5 C-terminal 12 aa]: 0.698 ± 0.059 and 0.68 ± 0.011.
The matching figures for ELLYIIDHLSEL [BTS1 C-terminal 12 aa]: 0.693 ± 0.023 and 0.67 ± 0.015.
As to EMKHSLFRNPFH [PIG2 C-terminal 12 aa], the protein stability index by setting is: under setting [1], 0.705 ± 0.014; (genetic background: wild type) 0.678 ± 0.015.
With EPLKESIFNQLK [MRPL23 C-terminal 12 aa], the protein stability index came to 0.694 ± 0.013 under setting [1] and 0.678 ± 0.059 (genetic background: wild type).
With EQGGEGVQCASQ [YDJ1 C-terminal 12 aa], the protein stability index is, setting by setting: under setting [1], 0.686 ± 0.014; (genetic background: wild type) 0.69 ± 0.045.
The matching figures for ERDNWWVVAQKR [TRM9 C-terminal 12 aa]: 0.744 ± 0.023 and 0.723 ± 0.012.
For ERINFVCETYGL [AIM14 C-terminal 12 aa], in that order: 0.7 ± 0.018 and 0.7 ± 0.027.
Consider ERNPSQRPQRRY [RPS10B C-terminal 12 aa], for which the protein stability index reads like this: under setting [1], 0.686 ± 0.0083; (genetic background: wild type) 0.679 ± 0.066.
The matching figures for ERPQDWFEDIGE [FCY1 C-terminal 12 aa]: 0.7168 ± 0.0043 and 0.686 ± 0.017.
The matching figures for ESFEKQGKIIYN [MOB2 C-terminal 12 aa]: 0.681 ± 0.0097 and 0.685 ± 0.042.
The matching figures for ESSKDVKRNNKD [SDH7 C-terminal 12 aa]: 0.691 ± 0.012 and 0.702 ± 0.03.
With ETARNLAEYNGE [SEC72 C-terminal 12 aa], the protein stability index by setting is: under setting [1], 0.701 ± 0.013; (genetic background: wild type) 0.728 ± 0.0056.
The matching figures for ETGHISKDCPKA [GIS2 C-terminal 12 aa]: 0.698 ± 0.018 and 0.695 ± 0.013.
The matching figures for ETNFWTAAMEYE [THI22 C-terminal 12 aa]: 0.717 ± 0.011 and 0.701 ± 0.014.
EVPVNTADRGRL [PMU1 C-terminal 12 aa]: the protein stability index by setting is: under setting [1], 0.701 ± 0.021; (genetic background: wild type) 0.76 ± 0.071.
The matching figures for EWSSGIPHPEMI [ARA2 C-terminal 12 aa]: 0.7305 ± 0.0044 and 0.667 ± 0.018.
Take EYEPFVMYIINL [VMA5 C-terminal 12 aa]: the protein stability index reads like this: under setting [1], 0.6058 ± 0.001; (genetic background: wild type) 0.545 ± 0.0069.
The matching figures for EYMIERCRGHVL [YPL108W C-terminal 12 aa]: 0.708 ± 0.032 and 0.753 ± 0.04.
The matching figures for FANKSSSGGDEV [YIL089W C-terminal 12 aa]: 0.6849 ± 0.0047 and 0.672 ± 0.028.
FASPTLSFFFPI [YGL149W C-terminal 12 aa] came in with a protein stability index under setting [1] of 0.724 ± 0.013 and a protein stability index (genetic background: wild type) of 0.7061 ± 0.002.

(Values after the supplement of paper PMC10724198.)
